Source: patent US20240400717A1 (NATIONAL CHENG KUNG UNIVERSITY, published 2024)
Numbering of substitutions follows the chain as printed. Like-named read-outs stand apart in the source and are kept apart here. Each block holds one binder with its values, some of them ahead of it.

Experiments:
mouse rCHI3L1 [1] = molecular target: T1, mouse rCHI3L1 (mouse, UniProt Q61362 30-389, limits assumed); experiment: phage ELISA (3rd round single clone screening): coated protein, rescued phage supernatant, anti-M13-HRP, OD450
T1 construct: also called mouse CHI3L1; murine CHI3L1
T1 sequence (Q61362 30-389 limits assumed): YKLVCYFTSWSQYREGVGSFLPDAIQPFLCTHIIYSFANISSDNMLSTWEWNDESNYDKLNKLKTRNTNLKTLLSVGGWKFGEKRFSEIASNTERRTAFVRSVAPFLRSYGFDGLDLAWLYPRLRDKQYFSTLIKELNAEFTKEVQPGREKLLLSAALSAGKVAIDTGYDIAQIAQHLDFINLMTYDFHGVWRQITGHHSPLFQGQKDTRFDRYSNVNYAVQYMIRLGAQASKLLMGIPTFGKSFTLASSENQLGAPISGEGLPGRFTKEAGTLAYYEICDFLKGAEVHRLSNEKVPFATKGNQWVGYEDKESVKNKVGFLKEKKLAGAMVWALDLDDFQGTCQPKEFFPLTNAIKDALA

[2] = molecular target: T2, human CHI3L1 extracellular domain fused with flag and His tag recombinant protein (human, UniProt P36222 22-383); experiment: BLI (ForteBio Octet), mAb captured on AHC sensor, hCHI3L1/flag-His as analyte
T2 construct: extracellular domain; also called hCHI3L1/flag-His; hCHI3L1; not shown: flag and His tag
T2 sequence (P36222 22-383 limits assumed): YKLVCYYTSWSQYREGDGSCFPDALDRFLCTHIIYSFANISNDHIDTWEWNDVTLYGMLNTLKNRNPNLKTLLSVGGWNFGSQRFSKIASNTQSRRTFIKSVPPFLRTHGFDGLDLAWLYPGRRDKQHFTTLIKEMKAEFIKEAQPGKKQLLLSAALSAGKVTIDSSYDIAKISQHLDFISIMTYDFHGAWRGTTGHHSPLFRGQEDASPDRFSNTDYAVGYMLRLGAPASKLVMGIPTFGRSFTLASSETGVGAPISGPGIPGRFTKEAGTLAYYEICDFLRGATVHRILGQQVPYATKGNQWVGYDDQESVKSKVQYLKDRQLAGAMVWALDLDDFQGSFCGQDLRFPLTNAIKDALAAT

[3] = molecular target: T3, human chitotriosidase-1 (CHIT1) (human, UniProt Q13231 22-466, limits assumed); experiment: ELISA: coated recombinant protein titrated 2.50 to 0.00 µg/ml, antibody at 1 µg/ml, OD450
T3 sequence (Q13231 22-466 limits assumed): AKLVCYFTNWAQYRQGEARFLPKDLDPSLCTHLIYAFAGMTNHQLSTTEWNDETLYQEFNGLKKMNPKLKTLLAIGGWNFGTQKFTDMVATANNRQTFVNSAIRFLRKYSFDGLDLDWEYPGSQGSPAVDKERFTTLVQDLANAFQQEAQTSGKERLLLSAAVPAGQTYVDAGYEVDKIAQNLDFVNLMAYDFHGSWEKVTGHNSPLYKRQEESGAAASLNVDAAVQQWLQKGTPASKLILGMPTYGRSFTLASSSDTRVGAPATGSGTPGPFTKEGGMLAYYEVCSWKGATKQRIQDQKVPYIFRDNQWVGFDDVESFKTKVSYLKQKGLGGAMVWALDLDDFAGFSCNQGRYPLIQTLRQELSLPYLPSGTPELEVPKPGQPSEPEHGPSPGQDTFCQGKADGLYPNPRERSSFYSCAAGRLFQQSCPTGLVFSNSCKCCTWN

recombinant human CHI3L1 [4] = molecular target: T4, recombinant human CHI3L1 (human, UniProt P36222 22-383); experiment: as above
T4 construct: also called rCHI3L1; human rCHI3L1
T4 sequence (P36222 22-383 limits assumed): as the sequence (P36222 22-383 limits assumed) above

CHI3L2 [5] = molecular target: T5, CHI3L2 (human, UniProt Q15782 27-390, limits assumed); experiment: as above
T5 construct: The sentence reads 'human chitotriosidase-1 (CHIT1) and CHI3L2'
T5 sequence (looked up): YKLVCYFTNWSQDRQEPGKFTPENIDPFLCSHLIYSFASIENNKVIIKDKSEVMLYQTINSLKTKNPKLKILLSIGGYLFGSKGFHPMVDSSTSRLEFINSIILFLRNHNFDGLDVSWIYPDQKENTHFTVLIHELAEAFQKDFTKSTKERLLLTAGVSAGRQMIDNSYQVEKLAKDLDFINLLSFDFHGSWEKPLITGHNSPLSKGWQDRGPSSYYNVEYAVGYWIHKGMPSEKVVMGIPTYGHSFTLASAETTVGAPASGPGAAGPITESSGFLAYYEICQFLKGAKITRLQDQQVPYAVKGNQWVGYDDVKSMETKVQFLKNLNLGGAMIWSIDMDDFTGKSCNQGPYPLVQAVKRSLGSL

recombinant human CHI3L1 [6] = molecular target: T4, recombinant human CHI3L1; experiment: phage ELISA (4th round single clone screening): coated protein, rescued phage supernatant, anti-M13-HRP, OD450
mouse rCHI3L1 [7] = molecular target: T1, mouse rCHI3L1; experiment: as above
recombinant human CHI3L1 [8] = molecular target: T4, recombinant human CHI3L1; experiment: as above; remark: listed apart in the source
mouse rCHI3L1 [9] = molecular target: T1, mouse rCHI3L1; experiment: as above; remark: listed apart in the source
[10] = molecular target: T3, human chitotriosidase-1 (CHIT1); experiment: ELISA: coated recombinant protein titrated 2.50 to 0.00 µg/ml, antibody at 1 µg/ml, OD450; remark: listed apart in the source
recombinant human CHI3L1 [11] = molecular target: T4, recombinant human CHI3L1; experiment: as above; remark: listed apart in the source
CHI3L2 [12] = molecular target: T5, CHI3L2; experiment: as above; remark: listed apart in the source
recombinant human CHI3L1 [13] = molecular target: T4, recombinant human CHI3L1; experiment: ELISA: coated human rCHI3L1 titrated 2.5 to 0 µg/ml, antibody concentration not given, OD450
[14] = molecular target: T3, human chitotriosidase-1 (CHIT1); experiment: ELISA: coated recombinant protein titrated 2.50 to 0.00 µg/ml, antibody at 1 µg/ml, OD450; remark: listed apart in the source
recombinant human CHI3L1 [15] = molecular target: T4, recombinant human CHI3L1; experiment: as above; remark: listed apart in the source
CHI3L2 [16] = molecular target: T5, CHI3L2; experiment: as above; remark: listed apart in the source
[17] = molecular target: T3, human chitotriosidase-1 (CHIT1); experiment: as above; remark: listed apart in the source
recombinant human CHI3L1 [18] = molecular target: T4, recombinant human CHI3L1; experiment: as above; remark: listed apart in the source
CHI3L2 [19] = molecular target: T5, CHI3L2; experiment: as above; remark: listed apart in the source
mouse rCHI3L1 [20] = molecular target: T1, mouse rCHI3L1; experiment: ELISA: coated mouse rCHI3L1 titrated 2.5 to 0 µg/ml, antibody concentration not given, OD450

B2: anti-CHI3L1 clone R4-93 (antibody, human IgG1, V domains shown)
VH: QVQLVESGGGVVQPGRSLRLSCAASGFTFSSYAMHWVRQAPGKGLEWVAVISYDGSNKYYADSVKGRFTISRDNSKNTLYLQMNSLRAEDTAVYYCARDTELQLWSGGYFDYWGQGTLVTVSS
VL: NFMLTQPHSVSESPGKTVIISCTRSSGSIAHNYVQWYQLRPGSAPTTVISDDDQRPSGVPDRFSGSIDSSSNSASLTISGLRTEDEADYYCQSFDDSNWVFGGGTRLTVLG
notes: also called #hu R4-93
- binding result (recombinant human CHI3L1 [6]): binds
- binding result (mouse rCHI3L1 [7]): no binding

B3: anti-CHI3L1 clone R4-53 (antibody, human IgG1, V domains shown)
VH: QVQLVQSGAEVKKPGASVKVSCKASGYTFTSYYMHWVRQAPGQGLEWMGIINPSGGSTSYAQKFQGRVTMTRDTSTSTVYMELSSLRSEDTAVYYCASDIGDYGDYWGQGTTVTVSS
VL: SYVLTQPPSVSVALGQTARITCGGNNIESKIVSWYQQKPGQAPVLVIFYDTDRPSGISERFSGSNSGNTATLTISRVEAGDEADYYCQVWDSNSDHVIFGGGTKLTVLG
notes: also called #hu R4-53
- binding result (recombinant human CHI3L1 [6]): binds
- binding result (mouse rCHI3L1 [7]): no binding

B4: anti-CHI3L1 clone R4-39 (antibody, human IgG1, V domains shown)
VH: EVQLVQSGAEVRKPGESLKISCKASGYRFTNYWIGWVRQMPGKGLEWMGIIYPDDSNTKYSPSFQGQVTISVDKPITTAYLQWSSLKASDTAMYYCVRLDTYYYDSSGFPFDAFDIWGQGTMVTVSS
VL: DIQMTQSPSSLSAFVGDRVTITCQASQDISTFLSWYQQKPGKAPKLLIYDATNLETGVPSRFSGRGSGTDFTFTISSLQPEDVATYFCQQYDFLPLSFGGGTKVEIRR
notes: also called #hu R4-39
- binding result (recombinant human CHI3L1 [8]): binds
- binding result (mouse rCHI3L1 [9]): no binding

B6: anti-CHI3L1 clone R4-4 (antibody, V domains shown)
VH: EVQLLESGGGLLQPGGSLRLSCAASGLTFRNYAMTWVRQAPGKGLEWVSTISGNGDETFYADSVKGHFTISRDNSKDTVYLQMNSLRAEDTAVYYCAKGGHYSFFDSWGQGSPVTVSS
VL: NFMLTQPHSVSESPGKTVTISCTRSSGSIASNYVQWYQQRPGSSPTTVIYEDNQRPSGVPDRFSGSIDSSSNSASLTISGLKTEDEADYYCQSYDSSNYVFGTGTKVTVLG
notes: also called #hu R4-4; mAb clone R4-4
- Kd [2]: 1.13 nM
- koff [2]: 0.000353 s⁻¹
- kon [2]: 313000 M⁻¹ s⁻¹
- EC50 (read off the curve) (recombinant human CHI3L1 [13]): ~0.6 µg/mL
- binding result (mouse rCHI3L1 [9]): binds
- binding result [14]: no binding
- EC50 (read off the curve) (recombinant human CHI3L1 [15]): ~0.5 µg/mL
- binding result (CHI3L2 [16]): no binding

B7: anti-CHI3L1 clone R4-62 (antibody, human IgG1, V domains shown)
VH: EVQLVESGGGLVQPGGSLRLSCAASGLTFPNFAMTWVRQTPGKGLQWVSTISGRGDEPFYADSVKGRFTISRDNSKNMVYLHMNSLRAEDTAIYYCAKGGHFSSWDYWGQGTLVTVSS
VL: B6 VL with G42D, S44A, N53I, Q54E, S66A, S71A, K82Q, N98S
notes: also called #hu R4-62
- binding result (recombinant human CHI3L1 [6]): binds

Second part, led by results:

- binding result (mouse rCHI3L1 [1]): no binding
- Kd [2]: 2.79 nM
- koff [2]: 0.00302 s⁻¹
- kon [2]: 1.08e+06 M⁻¹ s⁻¹
- binding result [3]: no binding
- EC50 (read off the curve) (recombinant human CHI3L1 [4]): ~0.8 µg/mL
- binding result (CHI3L2 [5]): no binding
B1: anti-CHI3L1 clone 293R3-2 (antibody, human IgG1, V domains shown)
VH: QVQLQESGPGLVEPSGTLSLTCAVSGGSISSSNWWSWVRQHPGKGLEWIGEIYHSGSTNYNPSLRSRVTISVDKSKNQFSLELSSVTAADTAVYYCAGDQRMEDDAFDIWGQGTMVTVSS
VL: QSALTQPASVSGSPGQSITISCTGTSSDVGGYNYVSWYQQHPGKAPKLMIYDVSNRPSGVSNRFSGSKSGNTASLTISGLQAEDEADYYCSSYTSSSTLYVFGTGTKVTVLG
notes: also called #hu 293R3-2; CHI3L1 293R3-2

- binding result [10]: no binding
- EC50 (read off the curve) (recombinant human CHI3L1 [11]): ~0.8 µg/mL
- binding result (CHI3L2 [12]): no binding
- Kd [2]: 4.22 nM
- koff [2]: 0.0065 s⁻¹
- kon [2]: 1.54e+06 M⁻¹ s⁻¹
- binding result (mouse rCHI3L1 [7]): no binding
B5: anti-CHI3L1 clone R4-54 (antibody, human IgG1, V domains shown)
VH: QVQLVESGGGVVQPGRSLRLSCAASGFTFSSYGMHWVRQAPGKGLEWVAVISYDGSDKDYADSVKGRFTISRDNSKNTLFLQMNSLRAEDTAVYYCARDDYDSTYYFDNWGQGTTVTVSS
VL: SYELTQPPSVSVSPGQTASITCSGDILADQYASWYQQKPGQSPVLVIYHDTKRPSGVPERFSGSTSGNTATLTISGTQAMDEAAYYCQAWDINTAWVFGGGTQLTVLG
notes: also called #hu R4-54; mAb clone R4-54

- binding result (recombinant human CHI3L1 [8]): binds
- binding result (mouse rCHI3L1 [9]): no binding
B8: anti-CHI3L1 clone R4-2 (antibody, human IgG1, V domains shown)
VH: QVQLVQSGAEVKKPGSSVKVSCKASGGTFSSYAISWVRQAPGQGLEWMGGIIPIFGTANYAQKFQGRVTITADESTSTAYMELSSLRSEDTAVYYCARGDIEYYDILTGYYYYFDYWGQGTLVTVSS
VL: SYVLTQPPSVSVAPGKAARVTCGGNDIGSKSVQWYQQKPGQAPVLVISYDNDRPSGIPERFSGSNSGNTATLTISRVEAGDEADYYCQVWDSTSDHYVFGTGTKVTVQG
notes: also called #hu R4-2

- binding result [17]: no binding
- EC50 (read off the curve) (recombinant human CHI3L1 [18]): ~0.8 µg/mL
- binding result (CHI3L2 [19]): no binding
- Kd [2]: 3.94 nM
- koff [2]: 0.00722 s⁻¹
- kon [2]: 1.83e+06 M⁻¹ s⁻¹
B9: anti-CHI3L1 clone 293R3-4 (antibody, human IgG1, V domains shown)
VH: EVQLVQSGAEVKKPGATVKISCKVSGYSFTDYYIHWVQQAPGKGLEWMGFVDPENGETIYAEKFQGRVTITADTSTDTAYMELSSLRSDDTAVYYCATDRDYDDSSGNAFDIWGQGTMVTVSS
VL: SYELTQPPSVSVSTGQTATITCSGDILGDEYAFWYQQKAGQSPVLVIYLDTRRPSGIPERFSGSNSGDTATLTISETQPVDEAVYFCQGWDSSTALYVFGTGTKVTVLG
notes: also called #hu 293R3-4; CHI3L1 293R3-4
- binding result (mouse rCHI3L1 [20]): no binding (tested: 2.5 µg/ml coated protein)

- binding result (recombinant human CHI3L1 [6]): binds
- binding result (mouse rCHI3L1 [7]): no binding
B10: anti-CHI3L1 clone R4-63 (antibody, human IgG1, V domains shown)
VH: EVQLVQSGAEVKKPGATVKISCKVSGYTFTDYYMHWVQQAPGKGLEWMGLVDPEDGETIYAEKFQGRVTITADTSTDTAYMELSSLRSEDTAVYYCATIGRPPDYWGQGTTVTVSS
VL: QSVLTQPPSVSAAPGQKVTISCSGSSSNIGNNYVSWYQQLPGTAPKLLIYDNNKRPSGIPDRFSGSKSGTSATLGITGLQTGDEADYYCGTWDSSLSVWVFGGGTKLTVLG
notes: also called #hu R4-63
